Reference: the supplement of paper PMC11246515
± gives the standard deviation of the averaged measurements.

Test: total protein half-life in vivo (active degradation + dilution); higher = more stable protein
[1] = E. coli NCM3722 delta-clpP delta-lon delta-hslV, growth: N-lim chemostat, doubling time 6 h
[2] = E. coli NCM3722 delta-clpP, growth: N-lim chemostat, doubling time 6 h
[3] = E. coli NCM3722 delta-hslV, growth: N-lim chemostat, doubling time 6 h
[4] = E. coli NCM3722 delta-lon, growth: N-lim chemostat, doubling time 6 h
[5] = E. coli NCM3722 delta-smpB, growth: N-lim chemostat, doubling time 6 h
[6] = wild type E. coli NCM3722, growth: C-lim chemostat, doubling time 3 h
[7] = wild type E. coli NCM3722, growth: C-lim chemostat, doubling time 6 h
[8] = wild type E. coli NCM3722, growth: C-lim chemostat, doubling time 12 h
[9] = wild type E. coli NCM3722, growth: N-lim chemostat, doubling time 6 h
[10] = wild type E. coli NCM3722, growth: N-lim chemostat, doubling time 12 h
[11] = wild type E. coli NCM3722, growth: P-lim chemostat, doubling time 6 h
[12] = wild type E. coli NCM3722, growth: P-lim chemostat, doubling time 12 h

Sequence	total protein half-life in vivo [1] [h]	total protein half-life in vivo [2] [h]	total protein half-life in vivo [3] [h]	total protein half-life in vivo [4] [h]	total protein half-life in vivo [5] [h]	total protein half-life in vivo [6] [h]	total protein half-life in vivo [7] [h]	total protein half-life in vivo [8] [h]	total protein half-life in vivo [9] [h]	total protein half-life in vivo [10] [h]	total protein half-life in vivo [11] [h]	total protein half-life in vivo [12] [h]
MKNWKTLLLGIAMIANTSFAAPQVVDKVAAVVNNGVVLESDVDGLMQSVKLNAAQARQQLPDDATLRHQIMERLIMDQIILQMGQKMGVKISDEQLDQAIANIAKQNNMTLDQMRSRLAYDGLNYNTYRNQIRKEMIISEVRNNEVRRRITILPQEVESLAQQVGNQNDASTELNLSHILIPLPENPTSDQVNEAESQARAIVDQARNGADFGKLAIAHSADQQALNGGQMGWGRIQELPGIFAQALSTAKKGDIVGPIRSGVGFHILKVNDLRGESKNISVTEVHARHILLKPSPIMTDEQARVKLEQIAADIKSGKTTFAAAAKEFSQDPGSANQGGDLGWATPDIFDPAFRDALTRLNKGQMSAPVHSSFGWHLIELLDTRNVDKTDAAQKDRAYRMLMNRKFSEEAASWMQEQRASAYVKILSN [P0ABZ6]	5.66 ± 0.16	6.39 ± 1.2	6.52 ± 0.36	6.49 ± 0.28	5.7 ± 0.35	2.97 ± 0.098	6.4 ± 0.42	11.7 ± 0.87	6.23 ± 0.57	13.1 ± 0.99	5.78 ± 0.24	11.7 ± 0.52
MKPENKLPVLDLISAEMKTVVNTLQPDLPPWPATGTIAEQRQYYTLERRFWNAGAPEMATRAYMVPTKYGQVETRLFCPQPDSPATLFYLHGGGFILGNLDTHDRIMRLLASYSQCTVIGIDYTLSPEARFPQAIEEIVAACCYFHQQAEDYQINMSRIGFAGDSAGAMLALASALWLRDKQIDCGKVAGVLLWYGLYGLRDSVTRRLLGGVWDGLTQQDLQMYEEAYLSNDADRESPYYCLFNNDLTREVPPCFIAGAEFDPLLDDSRLLYQTLAAHQQPCEFKLYPGTLHAFLHYSRMMKTADEALRDGAQFFTAQL						3.18 ± 0.17	5.349 ± 0.029	8.02 ± 2.3		11.6	5.69 ± 1.1	10.9 ± 1.4
MKPLHYTASALALGLALMGNAQAVTTIPFWHSMEGELGKEVDSLAQRFNAENPDYKIVPTYKGNYEQNLSAGIAAFRTGNAPAILQVYEVGTATMMASKAIKPVYDVFKEAGIQFDESQFVPTVSGYYSDSKTGHLLSQPFNSSTPVLYYNKDAFKKAGLDPEQPPKTWQDLADYAAKLKASGMKCGYASGWQGWIQLENFSAWNGLPFASKNNGFDGTDAVLEFNKPEQVKHIAMLEEMNKKGDFSYVGRKDESTEKFYNGDCAMTTASSGSLANIREYAKFNYGVGMMPYDADAKDAPQNAIIGGASLWVMQGKDKETYTGVAKFLDFLAKPENAAEWHQKTGYLPITKAAYDLTREQGFYEKNPGADTATRQMLNKPPLPFTKGLRLGNMPQIRVIVDEELESVWTGKKTPQQALDTAVERGNQLLRRFEKSTKS [P0AG80]	4.8 ± 0.06	5.43 ± 0.54	7.41 ± 0.31		6.14 ± 0.2	3.37 ± 0.17	6.26 ± 0.076	12.9 ± 0.73	6.47 ± 0.47	12.7 ± 0.98	6.14 ± 0.21	12.99 ± 0.1
MKPLLDVLMILDALEKEGSFAAASAKLYKTPSALSYTVHKLESDLNIQLLDRSGHRAKFTRTGKMLLEKGREVLHTVRELEKQAIKLHEGWENELVIGVDDTFPFSLLAPLIEAFYQHHSVTRLKFINGVLGGSWDALTQGRADIIVGAMHEPPSSSEFGFSRLGDLEQVFAVAPHHPLALEEEPLNRRIIKRYRAIVVGDTAQAGASTASQLLDEQEAITVFDFKTKLELQISGLGCGYLPRYLAQRFLDSGALIEKKVVAQTLFEPVWIGWNEQTAGLASGWWRDEILANSAIAGVYAKSDDGKSAI	5.91 ± 0.24											
MKPLSSPLQQYWQTVVERLPEPLAEESLSAQAKSVLTFSDFVQDSVIAHPEWLTELESQPPQADEWQHYAAWLQEALCNVSDEAGLMRELRLFRRRIMVRIAWAQTLALVTEESILQQLSYLAETLIVAARDWLYDACCREWGTPCNAQGEAQPLLILGMGKLGGGELNFSSDIDLIFAWPEHGCTQGGRRELDNAQFFTRMGQRLIKVLDQPTQDGFVYRVDMRLRPFGESGPLVLSFAALEDYYQEQGRDWERYAMVKARIMGDSEGVYANELRAMLRPFVFRRYIDFSVIQSLRNMKGMIAREVRRRGLTDNIKLGAGGIREIEFIVQVFQLIRGGREPSLQSRSLLPTLSAIAELHLLSENDAEQLRVAYLFLRRLENLLQSINDEQTQTLPSDELNRARLAWAMDFADWPQLTGALTAHMTNVRRVFNELIGDDESETQEESLSEQWRELWQDALQEDDTTPVLAHLSEDDRKQVLTLIADFRKELDKRTIGPRGRQVLDHLMPHLLSDVCAREDAAVTLSRITALLVGIVTRTTYLELLSEFPAALKHLISLCAASPMIASQLARYPLLLDELLDPNTLYQPTATDAYRDELRQYLLRVPEDDEEQQLEALRQFKQAQLLRIAAADIAGTLPVMKVSDHLTWLAEAMIDAVVQQAWVQMVARYGKPNHLNEREGRGFAVVGYGKLGGWELGYSSDLDLIFLHDCPMDAMTDGEREIDGRQFYLRLAQRIMHLFSTRTSSGILYEVDARLRPSGAAGMLVTSAEAFADYQKNEAWTWEHQALVRARVVYGDPQLTAHFDAVRREIMTLPREGKTLQTEVREMREKMRAHLGNKHRDRFDIKADEGGITDIEFITQYLVLRYAHEKPKLTRWSDNVRILELLAQNDIMEEQEAMALTRAYTTLRDELHHLALQELPGHVSEDCFTAERELVRASWQKWLVEE	4.99 ± 0.16	4.75 ± 0.75	4.215 ± 0.0047	5.2 ± 0.75	4.64 ± 0.27	3.414 ± 0.027	6.65 ± 1.2	12.9 ± 0.85	4.22 ± 0.24	7.85 ± 0.1	6.33 ± 0.28	13.3 ± 1.3
MKPMHIAMALLSAAMFFVLAGVFMGVQLELDGTKLVVDTASDVRWQWVFIGTAVVFFFQLLRPAFQKGLKSVSGPKFILPAIDGSTVKQKLFLVALLVLAVAWPFMVSRGTVDIATLTMIYIILGLGLNVVVGLSGLLVLGYGGFYAIGAYTFALLNHYYGLGFWTCLPIAGLMAAAAGFLLGFPVLRLRGDYLAIVTLGFGEIVRILLLNNTEITGGPNGISQIPKPTLFGLEFSRTAREGGWDTFSNFFGLKYDPSDRVIFLYLVALLLVVLSLFVINRLLRMPLGRAWEALREDEIACRSLGLSPRRIKLTAFTISAAFAGFAGTLFAARQGFVSPESFTFAESAFVLAIVVLGGMGSQFAVILAAILLVVSRELMRDFNEYSMLMLGGLMVLMMIWRPQGLLPMTRPQLKLKNGAAKGEQA	5.59 ± 2.4	6.22	5.84 ± 0.34	5.83 ± 1.7	5.92 ± 1.1		5.79 ± 0.64	10.7 ± 1.2		12.2	6.09 ± 0.58	10.7 ± 0.3
MKPTTLLLIFTFFAMPGIVYAESPFSSLQSAKEKTTVLQDLRKICTPQASLSDEAWEKLMLSDENNKQHIREAIVAMERNNQSNYWEALGKVECPDM [Q2M7X4]	4.53											
MKPVKPPRINGRVPVLSAQEAVNYIPDEATLCVLGAGGGILEATTLITALADKYKQTQTPRNLSIISPTGLGDRADRGISPLAQEGLVKWALCGHWGQSPRISELAEQNKIIAYNYPQGVLTQTLRAAAAHQPGIISDIGIGTFVDPRQQGGKLNEVTKEDLIKLVEFDNKEYLYYKAIAPDIAFIRATTCDSEGYATFEDEVMYLDALVIAQAVHNNGGIVMMQVQKMVKKATLHPKSVRIPGYLVDIVVVDPDQTQLYGGAPVNRFISGDFTLDDSTKLSLPLNQRKLVARRALFEMRKGAVGNVGVGIADGIGLVAREEGCADDFILTVETGPIGGITSQGIAFGANVNTRAILDMTSQFDFYHGGGLDVCYLSFAEVDQHGNVGVHKFNGKIMGTGGFIDISATSKKIIFCGTLTAGSLKTEITDGKLNIVQEGRVKKFIRELPEITFSGKIALERGLDVRYITERAVFTLKEDGLHLIEIAPGVDLQKDILDKMDFTPVISPELKLMDERLFIDAAMGFVLPEAAH	5.68 ± 0.1	4.03 ± 0.058	3.94 ± 0.05	4.17 ± 0.1	3.728 ± 0.031	2.75 ± 0.29	5.2 ± 0.61	10.7 ± 1.1	3.81 ± 0.14	6.72 ± 0.91	6.39 ± 0.56	11.1 ± 0.4
MKPVTLYDVAEYAGVSYQTVSRVVNQASHVSAKTREKVEAAMAELNYIPNRVAQQLAGKQSLLIGVATSSLALHAPSQIVAAIKSRADQLGASVVVSMVERSGVEACKAAVHNLLAQRVSGLIINYPLDDQDAIAVEAACTNVPALFLDVSDQTPINSIIFSHEDGTRLGVEHLVALGHQQIALLAGPLSSVSARLRLAGWHKYLTRNQIQPIAEREGDWSAMSGFQQTMQMLNEGIVPTAMLVANDQMALGAMRAITESGLRVGADISVVGYDDTEDSSCYIPPLTTIKQDFRLLGQTSVDRLLQLSQGQAVKGNQLLPVSLVKRKTTLAPNTQTASPRALADSLMQLARQVSRLESGQ	5.83 ± 0.72	5.64 ± 0.41	4.55 ± 0.067	4.85 ± 0.15	4.13 ± 0.042	2.96 ± 0.24	5.81 ± 0.66	7.63 ± 1.8	5.01 ± 0.34	7.759 ± 0.077	4.77 ± 0.2	10.5 ± 0.49
MKQATRKPTTPGDILLYEYLEPLDLKINELAELLHVHRNSVSALINNNRKLTTEMAFRLAKVFDTTVDFWLNLQAAVDLWEVENNMRTQEELGRIETVAEYLARREERAKKVA [P0A9T6]	5.02 ± 0.066	3.95 ± 0.23	0.853	0.94	0.895 ± 0.037	0.871 ± 0.018	0.977 ± 0.032	1.53	1.08	1.08	0.994 ± 0.08	1.7 ± 0.7
MKQDLARIEQFLDALWLEKNLAENTLNAYRRDLSMMVEWLHHRGLTLATAQSDDLQALLAERLEGGYKATSSARLLSAVRRLFQYLYREKFREDDPSAHLASPKLPQRLPKDLSEAQVERLLQAPLIDQPLELRDKAMLEVLYATGLRVSELVGLTMSDISLRQGVVRVIGKGNKERLVPLGEEAVYWLETYLEHGRPWLLNGVSIDVLFPSQRAQQMTRQTFWHRIKHYAVLAGIDSEKLSPHVLRHAFATHLLNHGADLRVVQMLLGHSDLSTTQIYTHVATERLRQLHQQHHPRA [P0A8P8]	5.75 ± 1.2	2.02 ± 0.045	2.06	4.89 ± 0.092	2.04 ± 0.034	1.74 ± 0.27	3.04 ± 0.085	4.08 ± 0.66	2.31 ± 0.2	3.34 ± 0.29		2.81
MKQEVILVLDCGATNVRAIAVNRQGKIVARASTPNASDIAMENNTWHQWSLDAILQRFADCCRQINSELTECHIRGIAVTTFGVDGALVDKQGNLLYPIISWKCPRTAAVMDNIERLISAQRLQAISGVGAFSFNTLYKLVWLKENHPQLLERAHAWLFISSLINHRLTGEFTTDITMAGTSQMLDIQQRDFSPQILQATGIPRRLFPRLVEAGEQIGTLQNSAAAMLGLPVGIPVISAGHDTQFALFGAGAEQNEPVLSSGTWEILMVRSAQVDTSLLSQYAGSTCELDSQAGLYNPGMQWLASGVLEWVRKLFWTAETPWQMLIEEARLIAPGADGVKMQCDLLSCQNAGWQGVTLNTTRGHFYRAALEGLTAQLQRNLQMLEKIGHFKASELLLVGGGSRNTLWNQIKANMLDIPVKVLDDAETTVAGAALFGWYGVGEFNSPEEARAQIHYQYRYFYPQTEPEFIEEV	5.11	3.99 ± 0.14				0.905 ± 0.18	2.56	1.49				
